# Data: patent US20250340657A1 (CANTARGIA, published 2025)
# Numbering of substitutions follows the chain as printed.
# B1: CAN04 (murine) as listed in Table 3 (antibody, human IgG1, kappa, V domains shown)
# VH: QVQLQQSGPELLKPGASVKISCKASGYAFSSSWMNWVKQRPGKGLEWIGRIYPGDGNTHYSGKFKGKATLTADKSSSIAYMQLSSLTSEDSAVYFCGEGYLDPMDYWGQGTSVTVSS
# VL: DIQMTQTTSSLSASLGDRVTISCSASQGINNYLNWYQQKPDGTVKLLIHYTSGLHAGVPSRFSGSGSGTDYSLTISNLEPEDVATYYCQQYSILPWTFGGGTKLEIKR
# notes: Whether the footnotes apply to the row labelled '(murine)' is not certain
# B2: hCAN04 Variant 6 (antibody, human IgG1, kappa, V domains shown)
# VH: QVQLVQSGAEVKKPGSSVKVSCKASGYAFTSSWMNWVRQAPGQGLEWMGRIYPGDGNTHYAQKFQGRVTLTADKSTSTAYMELSSLRSEDTAVYYCGEGYLDPMDYWGQGTLVTVSS
# VL: DIQMTQSPSSLSASVGDRVTITCQASQGINNYLNWYQQKPGKAPKLLIHYTSGLHAGVPSRFSGSGSGTDYTLTISSLEPEDVATYYCQQYSILPWTFGGGTKVEIKR
# notes: Human IgG1za / kappa, expressed in CHOK1SV cells; also called Var6; humanized variant 6 of CAN04
# B3: hCAN04 Variant 11 (antibody, human IgG1, kappa, V domains shown)
# VH: B2 VH with A28T, Q43K, N57Q
# VL: B2 VL with Y71F
# notes: Human IgG1za / kappa, expressed in CHOK1SV cells; also called Var11; humanized variant 11 of CAN04
# B4: hCAN04 Variant 12 (antibody, human IgG1, kappa, V domains shown)
# VH: B2 VH with A28T, Q43K, N57Q, L70I
# VL: B2 VL with Y71F
# notes: Human IgG1za / kappa, expressed in CHOK1SV cells; also called Var 12; humanized variant 12 of CAN04
# B5: hCAN04 Variant 8 (antibody, human IgG1, kappa, V domains shown)
# VH: B2 VH with A28T, Q43K, N57Q, L70I
# VL: B2 VL
# notes: Human IgG1za / kappa, expressed in CHOK1SV cells; also called Var8; humanized variant 8 of CAN04
# B6: hCAN04 Variant 3 (antibody, human IgG1, kappa, V domains shown)
# VH: B2 VH with A28T, Q43K, N57Q
# VL: B2 VL with Q24S, E79Q
# notes: Human IgG1za / kappa, expressed in CHOK1SV cells; also called Var3; humanized variant 3 of CAN04
# B7: hCAN04 Variant 5 (antibody, human IgG1, kappa, V domains shown)
# VH: B2 VH with T30S
# VL: B2 VL
# notes: Human IgG1za / kappa, expressed in CHOK1SV cells; also called Var5; humanized variant 5 of CAN04
# B8: hCAN04 Variant 4 (antibody, human IgG1, kappa, V domains shown)
# VH: B2 VH with A28T, Q43K, N57Q, L70I
# VL: B2 VL with Q24S, E79Q
# notes: Human IgG1za / kappa, expressed in CHOK1SV cells; also called Var4; humanized variant 4 of CAN04
# B9: hCAN04 Variant 1 (antibody, human IgG1, kappa, V domains shown)
# VH: B2 VH with T30S
# VL: B2 VL with Q24S, E79Q
# notes: Human IgG1za / kappa, expressed in CHOK1SV cells; also called Var1; humanized variant 1 of CAN04
# B10: hCAN04 Variant 10 (antibody, human IgG1, kappa, V domains shown)
# VH: B2 VH
# VL: B2 VL with Y71F
# notes: Human IgG1za / kappa, expressed in CHOK1SV cells; also called Var10; humanized variant 10 of CAN04
# B11: hCAN04 Variant 9 (antibody, human IgG1, kappa, V domains shown)
# VH: B2 VH with T30S
# VL: B2 VL with Y71F
# notes: Human IgG1za / kappa, expressed in CHOK1SV cells; also called Var9; humanized variant 9 of CAN04
# B12: hCAN04 Variant 7 (antibody, human IgG1, kappa, V domains shown)
# VH: B2 VH with A28T, Q43K, N57Q
# VL: B2 VL
# notes: Human IgG1za / kappa, expressed in CHOK1SV cells; also called Var7; humanized variant 7 of CAN04
# B13: hCAN04 Variant 2 (antibody, human IgG1, kappa, V domains shown)
# VH: B2 VH
# VL: B2 VL with Q24S, E79Q
# notes: Human IgG1za / kappa, expressed in CHOK1SV cells; also called Var2; humanized variant 2 of CAN04
# B14: CAN04 (antibody, V domains shown)
# VH: B1 VH
# VL: B1 VL
# notes: Murine-derived monoclonal IgG; It was PE-conjugated on primary cells and AF488-labelled for confocal microscopy; also called exemplary antibody of the invention
# Molecular target: T1, recombinant hIL1RAP 21-367 (human, UniProt Q9NPH3 21-367)
# T1 construct: range 21-367; also called Rec hIL1RAP Domain123 (aa21-367); Domain123
# Assay: indirect ELISA on coated hIL1RAP 21-367, three-fold dilutions from 3.5 nM
# Protocol: An indirect ELISA assay was performed. All samples were analysed in duplicate. Nunc-MaxiSorp 96 Micro Well™ Plates were coated with 100 ng of recombinant hIL1RAP 21-367 (100 μl/well) diluted in 0.01M PBS, pH 7.4, and incubated overnight at 4° C. Plates were washed with ELISA washing buffer (0.01M PBS, 0.05% Tween 20, pH 7.4) followed by a blocking step using 150 μl/well of ELISA blocking solution (PBS, 0.5% BSA, 0.05% Tween 20, pH 7.4). After 1 h incubation at room temperature (RT) on agitation the plates were washed again using ELISA washing buffer. Samples were diluted in three fold serial dilution (ranging from 1000 ng/ml to 0.5 ng/ml) in ELISA blocking solution and then transferred to the ELISA plate, 100 μl/well. Plates were incubated at RT for 1 h on agitation and then washed with ELISA washing solution. 100 μl/well of rabbit anti-mouse IgG conjugated to Alkaline Phosohatase (DAKO, 1:1000) was added and incubated 1 hour at RT on agitation. The plates were washed followed by addition of substrate (4-Nitrophenyl phosphatise disodium salt hexahydrate, SIGMA, 1 mg/ml), 100 μl/well. The plates were thereafter incubated at RT on agitation and absorbance at 405 nm measured consecutively for 30 min. Absorbance at 0 min was taken as background signal.
# An indirect ELISA assay was performed as described above with the alteration that the samples were diluted in a three-fold serial dilution starting at 3.5 nM and run in replicates of four.
row,Kd [nM],Binder
1,0.088,B1
2,0.173,B2
3,0.504,B3
4,0.62,B4
5,0.402,B5
6,0.45,B6
7,0.135,B7
8,0.47,B8
9,0.125,B9
10,0.301,B10
11,0.21,B11
12,0.526,B12
13,0.171,B13

# Molecular target: T2, human IL1RAP (analyte of the Biacore study) (human, UniProt Q9NPH3 21-367, limits assumed)
# T2 construct: The methods say only 'the analyte (100 nM)'; The result sentence names it human IL1RAP; also called IL1-RAP protein; the analyte
# Assay: SPR (Biacore T200), antibody captured on anti-mouse IgG, analyte 100 nM, 25 C
# Protocol: Goat anti-mouse IgG was immobilized on a CM5 chip according to the technical manual of capture kit and standard operation principle of BIAcore T200 (Biacore Life Sciences, GE Healthcare Europe GmbH, Uppsala, Sweden).
# The capture molecule surface was regenerated after each binding cycle using the manufacturer's recommended conditions.
# After five cycles of start-up, each antibody (100 nM) was injected at a flow rate of 30 μl/min, for 120 s, at the start of the cycle; then the analyte (100 nM) was injected at a flow rate of 30 μl/min, for 120 s, followed by monitoring the dissociation phase for 300 s.
Kd [nM],koff [s⁻¹],kon [M⁻¹ s⁻¹],Binder
0.11,4.72e-05,427000,B14
